Test system: PR
Test: GST in vitro pulldown assay with 35S-labeled PSF and GST-PR fusion proteins
Type: binding
Conditions: 35S-labeled PSF
Method: FIG. 3. Mapping PSF and PR interaction site. (A) GST or GST-PR fusion proteins bound to glutathione-sepharose beads were incubated with ^35S-labeled PSF and binding of PSF was assessed by autoradiography. (B) GST or GST-PSF fusion proteins bound to glutathione-sepharose beads were incubated with ^35S-labeled PRB and binding of PRB was assessed by autoradiography. Input represents 10% of the material used for each sample in A and B. (C) GST-PSF fusion proteins used in assay B were separated on SDS gel and stained with commassie blue.
For immunoprecipitation of the endogenous PR and PSF, T47D cells cultured in 150 mm dishes were lysed in 800 μl NETN buffer containing 150 mM NaCl plus protease inhibitor cocktail. Cell lysate were then incubated with 5 μg of PR or PSF, or control mouse IgG at 4° C. overnight, followed by the addition of 30 μl of protein A/G PLUS-agarose beads (Santa Cruz) for another two hours at 4° C. Resins were washed with NETN containing 250 mM NaCl and eluted with 1×Laemmli buffer. […] Gels were treated with Enhancer (NEN, Boston, US) dried and analyzed by autoradiography. • Cell culture and transient transfection: SHM cells and 293T cells were maintained in DMEM plus 5% FCS (Sigma) as described before (22). […] Luciferase activity was determined by using the luciferin reagent (Promega) according to manufacture's protocol. […]

B1: polypyrimidine tract binding protein-associated splicing factor (protein)
chain: MSRDRFRSRGGGGGGFHRRGGGGGRGGLHDFRSPPPGMGLNQNRGPMGPGPGQSGPKPPIPPPPPHQQQQQPPPQQPPPQQPPPHQPPPHPQPHQQQQPPPPPQDSSKPVVAQGPGPAPGVGSAPPASSSAPPATPPTSGAPPGSGPGPTPTPPPAVTSAPPGAPPPTPPSSGVPTTPPQAGGPPPPPAAVPGPGPGPKQGPGPGGPKGGKMPGGPKPGGGPGLSTPGGHPKPPHRGGGEPRGGRQHHPPYHQQHHQGPPPGGPGGRSEEKISDSEGFKANLSLLRRPGEKTYTQRCRLFVGNLPADITEDEFKRLFAKYGEPGEVFINKGKGFGFIKLESRALAEIAKAELDDTPMRGRQLRVRFATHAAALSVRNLSPYVSNELLEEAFSQFGPIERAVVIVDDRGRSTGKGIVEFASKPAARKAFERCSEGVFLLTTTPRPVIVEPLEQLDDEDGLPEKLAQKNPMYQKERETPPRFAQHGTFEYEYSQRWKSLDEMEKQQREQVEKNMKDAKDKLESEMEDAYHEHQANLLRQDLMRRQEELRRMEELHNQEMQKRKEMQLRQEEERRRREEEMMIRQREMEEQMRRQREESYSRMGYMDPRERDMRMGGGGAMNMGDPYGSGGQKFPPLGGGGGIGYEANPGVPPATMSGSMMGSDMRTERFGQGGAGPVGGQGPRGMGPGTPAGYGRGREEYEGPNKKPRF
notes: expressed from transfected His-PSF vector or in vitro translated
**Q.** For B1, which “binding to other segments of PR” value is on record?
**A.** did not bind

From US20070286806A1, “Methods and Compositions for Modulating a Steroid Receptor” (Mount Sinai Hospital, priority 2004, published 2007)
